Experimental data published in the supplement of paper PMC10724198.
± gives the standard deviation of the averaged measurements.

What follows are sequences tested on Saccharomyces cerevisiae (assay: protein stability index of tFT-peptide fusion (C-terminal peptide) (PSI (0-1 scale)); higher = more stable (slower turnover)). Conditions: genetic background: wild type; temperature: 30 C.
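Further: PSI is a weighted mean of sequencing reads over stability bins, variants kept only with over 10 reads, mCherry proximal and sfGFP distal, peptide attached via GGGS linker.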

Row | Sequence | protein stability index
1 | FLIFGMVDFAVV | 0.331 ± 0.018
2 | FLIFVVIGGVGL | 0.2837 ± 0.0028
3 | FLLELRFTCSYS | 0.431 ± 0.013
4 | FLLFFVLRLLPC | 0.316 ± 0.018
5 | FLPGEAVFVYCR | 0.4334 ± 0.0032
6 | FLSVGFSCSFVC | 0.4939 ± 0.00094
7 | FLSVLPLFAFFA | 0.333 ± 0.0081
8 | FLVCTFCRWVWL | 0.233 ± 0.056
9 | FLVFPLLIQFFL | 0.36 ± 0.019
10 | FPLGAQTWLCLS | 0.318 ± 0.0065
11 | FPLPPPGSPPPL | 0.0293 ± 0.02
12 | FRFFYLPVSVVA | 0.223 ± 0.027
13 | FRHKLSLGLVIV | 0.507 ± 0.011
14 | FRYLRPAFLLLH | 0.0906 ± 0.031
15 | FSALAPTPLLPL | 0.706 ± 0.042
16 | FSFCFCFPLSSL | 0.301 ± 0.0084
17 | FSPSPVFVTCRV | 0.356 ± 0.01
18 | FTRLDYKRIKIV | 0.102 ± 0.024
19 | FVEFCFWCFWVV | 0.426 ± 0.005
20 | FVICGMLVHWMV | 0.434 ± 0.01
21 | FVLLCVLEFVAG | 0.27 ± 0.008
22 | FVVFLLFFMLYH | 0.379 ± 0.043
23 | FVVFYFFLLFGV | 0.3283 ± 0.00033
24 | FVVVCWFWGGGF | 0.425 ± 0.026
25 | FWMLCFLCRLTV | 0.32 ± 0.03
26 | FWVNFLFVLFIL | 0.296 ± 0.049

Row | Sequence | protein stability index
27 | FYACRLWLVSVR | 0.29 ± 0.0033
28 | GACRVSSCVVVC | 0.4477 ± 0.0044
29 | GAFAGDVWRCVV | 0.297 ± 0.024
30 | GALWVLGVVVGG | 0.467 ± 0.018
31 | GAVRRWGWVSFV | 0.331 ± 0.044
32 | GAVVYGICFCTN | 0.442 ± 0.061
33 | GCLVVVGFFSVF | 0.326 ± 0.033
34 | GCVLVFFLRLDL | 0.49 ± 0.072
35 | GFALGSFMLVLR | 0.0977 ± 0.0089
36 | GFCFVFVFQCFF | 0.394 ± 0.049
37 | GFFFLFFVSAFI | 0.407 ± 0.026
38 | GFFFYFVLFGLS | 0.409 ± 0.0059
39 | GFISKLIIKLAA | 0.435 ± 0.0059
40 | GFVLMLLVRFEL | 0.419 ± 0.034
41 | GGFRVLLWCVVW | 0.28 ± 0.016
42 | GGGEGVVWVRLG | 0.272 ± 0.018
43 | GGGWCEMLIVVG | 0.441 ± 0.018
44 | GGRFVWIVRAVG | 0.471 ± 0.014
45 | GGRHYGILDLSL | 0.7174 ± 0.0062
46 | GGVSPRSSMDLL | 0.434 ± 0.21
47 | GGVWVLGVAVVW | 0.348 ± 0.062
48 | GGWSFSSLWKIA | 0.301 ± 0.09
49 | GIGVVWLDVFKT | 0.426 ± 0.017
50 | GIKLNVVYILLG | 0.482 ± 0.072
51 | GKHILLISLNIT | 0.351 ± 0.0065
52 | GKVSSFVLFHIS | 0.301 ± 0.013

Row | Sequence | protein stability index
53 | GLAVLSWLYIEL | 0.487 ± 0.013
54 | GLCFRVCIWVFV | 0.195 ± 0.041
55 | GLGWLLFVVERV | 0.453 ± 0.032
56 | GLSLLLLWFKVC | 0.169 ± 0.017
57 | GLSVFFFVGFIF | 0.418 ± 0.047
58 | GLVSCWIDPSMA | 0.714 ± 0.04
59 | GPCRPWIVVYAG | 0.475 ± 0.066
60 | GPWVIFSHLLLT | 0.404 ± 0.023
61 | GRFGVGVVFRLA | 0.456 ± 0.043
62 | GRGRGGRWGRLC | 0.269 ± 0.05
63 | GRLRLGVLCGGV | 0.529 ± 0.045
64 | GRVFSSFFLYIS | 0.0831 ± 0.0098
65 | GRVYLLGLYMSF | 0.373 ± 0.0094
66 | GSLGHCWFLFGV | 0.463 ± 0.016
67 | GSLHVISVVGML | 0.52 ± 0.034
68 | GSVLWISCLIFC | 0.3 ± 0.026
69 | GTHWARLGWLLA | 0.227 ± 0.11
70 | GVAFGLLVWLLG | 0.378 ± 0.071
71 | GVGAISLGFSWL | 0.717 ± 0.013
72 | GWLRHGWWRTVG | 0.313 ± 0.0015
73 | GWMLVVWCGVFG | 0.275 ± 0.03
74 | GYAFPPPHRVRT | 0.741 ± 0.025
75 | GYLVFTLRWLRG | 0.461 ± 0.06
76 | GYTVYARRLIMC | 0.146 ± 0.015
77 | GYVVYRRYILIR | 0.141 ± 0.0084
78 | HCSRMIIIFLFL | 0.371 ± 0.035

Each sequence was assayed on Saccharomyces cerevisiae in the same assay as above. Conditions: genetic background: cdc34-1; temperature: 37 C.
Protocol: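 MPS profiling in S. cerevisiae of the tFT-X12 degron library: putative degron peptides plus stable controls, 12 aa, fused to the C-terminus of a sfGFP-mCherry timer. Cells are FACS-sorted into 8 mCherry/sfGFP bins and deep-sequenced. PSI runs from 0 (unstable) to 1 (stable). Backgrounds are wild type, das1Δ and doa10Δ at 30 °C, and wild type, das1Δ, cdc34-1 and cdc53-1 at 37 °C; 2-3 technical replicates each.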

Row | Sequence | protein stability index
79 | FLIFGMVDFAVV | 0.247 ± 0.035
80 | FLIFVVIGGVGL | 0.259 ± 0.0043
81 | FLLELRFTCSYS | 0.383 ± 0.026
82 | FLLFFVLRLLPC | 0.272 ± 0.0094
83 | FLPGEAVFVYCR | 0.619 ± 0.016
84 | FLSVGFSCSFVC | 0.674 ± 0.082
85 | FLSVLPLFAFFA | 0.581 ± 0.026
86 | FLVCTFCRWVWL | 0.476 ± 0.079
87 | FLVFPLLIQFFL | 0.2311 ± 0.0022
88 | FPLGAQTWLCLS | 0.645 ± 0.084
89 | FPLPPPGSPPPL | 0.68 ± 0.035
90 | FRFFYLPVSVVA | 0.0275 ± 0.013
91 | FRHKLSLGLVIV | 0.54 ± 0.037
92 | FRYLRPAFLLLH | 0.162 ± 0.071
93 | FSALAPTPLLPL | 0.703 ± 0.055
94 | FSFCFCFPLSSL | 0.5603 ± 0.0013
95 | FSPSPVFVTCRV | 0.247 ± 0.027
96 | FTRLDYKRIKIV | 0.184 ± 0.18
97 | FVEFCFWCFWVV | 0.481 ± 0.008
98 | FVICGMLVHWMV | 0.479 ± 0.04
99 | FVLLCVLEFVAG | 0.104 ± 0.027
100 | FVVFLLFFMLYH | 0.312 ± 0.052
101 | FVVFYFFLLFGV | 0.318 ± 0.032
102 | FVVVCWFWGGGF | 0.3213 ± 0.0031
103 | FWMLCFLCRLTV | 0.3236 ± 0.0019
104 | FWVNFLFVLFIL | 0.257 ± 0.023

Row | Sequence | protein stability index
105 | FYACRLWLVSVR | 0.161 ± 0.027
106 | GACRVSSCVVVC | 0.504 ± 0.011
107 | GAFAGDVWRCVV | 0.627 ± 0.02
108 | GALWVLGVVVGG | 0.461 ± 0.0066
109 | GAVRRWGWVSFV | 0.633 ± 0.052
110 | GAVVYGICFCTN | 0.624 ± 0.011
111 | GCLVVVGFFSVF | 0.214 ± 0.049
112 | GCVLVFFLRLDL | 0.4328 ± 0.0006
113 | GFALGSFMLVLR | 0.0226 ± 0.0077
114 | GFCFVFVFQCFF | 0.339 ± 0.0077
115 | GFFFLFFVSAFI | 0.368 ± 0.021
116 | GFFFYFVLFGLS | 0.34 ± 0.061
117 | GFISKLIIKLAA | 0.542 ± 0.0055
118 | GFVLMLLVRFEL | 0.299 ± 0.037
119 | GGFRVLLWCVVW | 0.19 ± 0.046
120 | GGGEGVVWVRLG | 0.537 ± 0.054
121 | GGGWCEMLIVVG | 0.506 ± 0.018
122 | GGRFVWIVRAVG | 0.6323 ± 0.0024
123 | GGRHYGILDLSL | 0.638 ± 0.063
124 | GGVSPRSSMDLL | 0.6849 ± 0.0066
125 | GGVWVLGVAVVW | 0.114 ± 0.014
126 | GGWSFSSLWKIA | 0.625 ± 0.066
127 | GIGVVWLDVFKT | 0.4 ± 0.0057
128 | GIKLNVVYILLG | 0.486 ± 0.045
129 | GKHILLISLNIT | 0.281 ± 0.024
130 | GKVSSFVLFHIS | 0.649 ± 0.039

Row | Sequence | protein stability index
131 | GLAVLSWLYIEL | 0.557 ± 0.022
132 | GLCFRVCIWVFV | 0.176 ± 0.0029
133 | GLGWLLFVVERV | 0.457 ± 0.019
134 | GLSLLLLWFKVC | 0.174 ± 0.0095
135 | GLSVFFFVGFIF | 0.38 ± 0.091
136 | GLVSCWIDPSMA | 0.697 ± 0.0081
137 | GPCRPWIVVYAG | 0.566 ± 0.036
138 | GPWVIFSHLLLT | 0.459 ± 0.037
139 | GRFGVGVVFRLA | 0.669 ± 0.038
140 | GRGRGGRWGRLC | 0.642 ± 0.05
141 | GRLRLGVLCGGV | 0.611 ± 0.016
142 | GRVFSSFFLYIS | 0.051 ± 0.02
143 | GRVYLLGLYMSF | 0.453 ± 0.041
144 | GSLGHCWFLFGV | 0.59 ± 0.038
145 | GSLHVISVVGML | 0.696 ± 0.012
146 | GSVLWISCLIFC | 0.157 ± 0.019
147 | GTHWARLGWLLA | 0.607 ± 0.03
148 | GVAFGLLVWLLG | 0.432 ± 0.021
149 | GVGAISLGFSWL | 0.734 ± 0.021
150 | GWLRHGWWRTVG | 0.605 ± 0.024
151 | GWMLVVWCGVFG | 0.174 ± 0.01
152 | GYAFPPPHRVRT | 0.654 ± 0.073
153 | GYLVFTLRWLRG | 0.384 ± 0.038
154 | GYTVYARRLIMC | 0.215 ± 0.0094
155 | GYVVYRRYILIR | 0.0341 ± 0.0027
156 | HCSRMIIIFLFL | 0.312 ± 0.044
